Residue numbers refer to the chain shown, from its start. In names and notes the source's numbering stands. Several values for one entry are separate records, joined by “and”; a condition that tells them apart may be missing. Equal entries are not always repeated.
Key:
[1] = target: T1, Trop-2 on Trop-2 expressing tumor cells (human, UniProt P09758 27-323); assay: cell-based or functional assay
T1 sequence: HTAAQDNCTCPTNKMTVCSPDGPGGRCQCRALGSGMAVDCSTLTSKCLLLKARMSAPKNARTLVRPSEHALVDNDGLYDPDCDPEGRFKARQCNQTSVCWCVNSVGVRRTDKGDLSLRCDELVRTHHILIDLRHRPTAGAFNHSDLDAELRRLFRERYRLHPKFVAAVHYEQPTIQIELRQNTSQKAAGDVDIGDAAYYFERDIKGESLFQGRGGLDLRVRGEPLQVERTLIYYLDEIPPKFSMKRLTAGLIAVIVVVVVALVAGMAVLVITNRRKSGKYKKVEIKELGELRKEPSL

[2] = target: T1, Trop-2 on Trop-2 expressing tumor cells; assay: cell-based or functional assay; remark: listed apart in the source
[3] = target: T2, monovalent human Trop2-ECD antigen (human, UniProt P09758 27-274); assay: SPR (ProteOn XPR36), amine-coupled Fab, monovalent human Trop2-ECD as analyte, 25 C;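 also: GLC sensor chip, 3 min association then 15 min buffer dissociation, kinetics fit with a 1:1 Langmuir model, buffer of 10 mM sodium phosphate with 150 mM NaCl and 0.05% Tween-20 at pH 7.4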
T2 construct: also called human Trop2-ECD (Extracellular Domain)
T2 sequence: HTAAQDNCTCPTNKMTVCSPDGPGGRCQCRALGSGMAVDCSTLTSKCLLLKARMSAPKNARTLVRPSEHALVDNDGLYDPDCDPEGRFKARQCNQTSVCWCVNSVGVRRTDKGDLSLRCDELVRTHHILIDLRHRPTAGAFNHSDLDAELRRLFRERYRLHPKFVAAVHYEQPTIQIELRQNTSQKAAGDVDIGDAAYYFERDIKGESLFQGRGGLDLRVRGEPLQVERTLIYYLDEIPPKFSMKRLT
Experimental: Analysis of Fab/human Trop2-ECD (Extracellular Domain) interactions was performed using a Bio-Rad Proteon XPR36Surface Plasmon Resonance (SPR) biosensor (Bio-Rad, Hercules, Calif.) equipped with a GLC sensor chip. The assay temperature was 25° C., and the assay buffer was 10 mM Sodium Phosphate, 150 mM NaCl, 0.05% Tween-20, pH 7.4. […] In each analysis cycle, monovalent human Trop2-ECD antigen was flowed at 30 μL/min over the immobilized Fabs for 3 minutes followed by a buffer wash for 15 minutes to monitor dissociation of the Fab/Trop2 complex. The sensor surface was regenerated between analysis cycles, using three 18-second injections of a 2:1 mixture (by volume) of Pierce IgG Elution buffer:4 M NaCl (Pierce, Rockford, Ill.). […] The resulting data were fit to a 1:1 Langmuir binding model using the Proteon evaluation software.

B1: h7E6SVG-N297Q/K222R-PEG6MMAD (antibody, V domains shown)
VH: QVQLQESGPGLVKPSETLSLTCTVSGGSISSYGVHWIRQPPGKGLEWIGVIWTSGVTDYNSALMGRVTISVDTSKNQFSLKLSSVTAADTAVYYCARDGDYDRYTMDYWGQGTLVTVSS
VL: DIVMTQSPDSLAVSLGERATINCRASKSVSTSGYSYMHWYQQKPGQPPKLLIYLASNLESGVPDRFSGSGSGTDFTLTISSLQAEDVAVYYCQHSRELPYTFGQGTKLEIK
modifications: N297Q/K222R mutations in the CH2/Hinge domains of heavy chain; conjugated with PEG6-MMAD
- Ab IC50, cell viability (CellTiter-Glo, 96 h), A431 (Trop2 +++) [1]: 0.07 nM
- Ab IC50, cell viability (CellTiter-Glo, 96 h), BxPC3 (Trop2 ++) [1]: 0.03 nM
- Ab IC50, cell viability (CellTiter-Glo, 96 h), Calu-3 (Trop2 ++) [1]: 0.5 nM
- Ab IC50, cell viability (CellTiter-Glo, 96 h), Colo205 (Trop2 +) [1]: 21.1 nM
- Ab IC50, cell viability (CellTiter-Glo, 96 h), MDA-MB-468 (Trop2 ++) [1]: 0.19 nM
- Ab IC50, cell viability (CellTiter-Glo, 96 h), NCI-H292 (Trop2 ++) [1]: 0.03 nM
- Ab IC50, cell viability (CellTiter-Glo, 96 h), NCI-H1650 (Trop2 ++) [1]: 0.38 nM
- Ab IC50, cell viability (CellTiter-Glo, 96 h), OVCAR3 (Trop2 +++) [1]: 0.98 nM
- Ab IC50, cell viability (CellTiter-Glo, 96 h), SKBR3 (Trop2 +/++) [1]: 0.08 nM

B2: h7E6SVG-TG6-vc0101 (antibody, human IgG1, V domains shown)
VH: B1 VH
VL: B1 VL
modifications: AcLys-vc-PABC-0101 on tag TG6 (LLQGA, SEQ ID NO: 79) at the C-terminus of the heavy chain
- Ab IC50, cell viability (CellTiter-Glo, 96 h), A431 (Trop2 +++) [1]: 0.12 nM
- Ab IC50, cell viability (CellTiter-Glo, 96 h), BxPC3 (Trop2 ++) [1]: 0.32 nM
- Ab IC50, cell viability (CellTiter-Glo, 96 h), Calu-3 (Trop2 ++) [1]: 0.53 nM
- Ab IC50, cell viability (CellTiter-Glo, 96 h), Colo205 (Trop2 +) [1]: 32.9 nM
- Ab IC50, cell viability (CellTiter-Glo, 96 h), MDA-MB-468 (Trop2 ++) [1]: 0.77 nM
- Ab IC50, cell viability (CellTiter-Glo, 96 h), NCI-H292 (Trop2 ++) [1]: 0.63 nM
- Ab IC50, cell viability (CellTiter-Glo, 96 h), NCI-H1650 (Trop2 ++) [1]: 1.92 nM
- Ab IC50, cell viability (CellTiter-Glo, 96 h), OVCAR3 (Trop2 +++) [1]: 0.56 nM
- Ab IC50, cell viability (CellTiter-Glo, 96 h), SKBR3 (Trop2 +/++) [1]: 0.42 nM

B3: h7E6SVG-LCQ03/K222R-vc0101 (antibody, human IgG1, V domains shown)
VH: B1 VH
VL: B1 VL
modifications: AcLys-vc-PABC-0101 on tag LCQ03 (SEQ ID NO: 78) at the C-terminus of the light chain; K222R in the heavy chain constant region
- Ab IC50, cell viability (CellTiter-Glo, 96 h), A431 (Trop2 +++) [1]: 0.03 nM
- Ab IC50, cell viability (CellTiter-Glo, 96 h), BxPC3 (Trop2 ++) [1]: 0.13 nM
- Ab IC50, cell viability (CellTiter-Glo, 96 h), Colo205 (Trop2 +) [1]: 174 nM

B4: h7E6-WT-TG1-vcMMAD (AcLys-vcMMAD conjugate) (antibody, V domains shown)
VH: B1 VH with S54G, V56S, G65S
VL: B1 VL
- Ab-IC50, cell viability (CellTiter-Glo, 96 h), A431 (Trop-2+++) [2]: 0.022 µg/mL and 0.144 nM
- Ab-IC50, cell viability (CellTiter-Glo, 96 h), BxPC3 (Trop-2++) [2]: 0.025 µg/mL and 0.169 nM
- Ab-IC50, cell viability (CellTiter-Glo, 96 h), CAPAN-2 (Trop-2+/++) [2]: 1.96 µg/mL and 13 nM
- Ab-IC50, cell viability (CellTiter-Glo, 96 h), Colo205 (Trop-2+) [2]: 0.445 µg/mL and 2.97 nM

B5: h7E6-L-TG1-vcMMAD (AcLys-vcMMAD conjugate) (antibody, V domains shown)
VH: B1 VH with S54G, V56S, G65S
VL: B1 VL with G33L
- Ab-IC50, cell viability (CellTiter-Glo, 96 h), A431 (Trop-2+++) [2]: 0.02 µg/mL and 0.132 nM
- Ab-IC50, cell viability (CellTiter-Glo, 96 h), BxPC3 (Trop-2++) [2]: 0.035 µg/mL and 0.232 nM
- Ab-IC50, cell viability (CellTiter-Glo, 96 h), CAPAN-2 (Trop-2+/++) [2]: 2.03 µg/mL and 13.5 nM
- Ab-IC50, cell viability (CellTiter-Glo, 96 h), Colo205 (Trop-2+) [2]: 0.082 µg/mL and 0.549 nM

B6: h7E6-N-TG1-vcMMAD (AcLys-vcMMAD conjugate) (antibody, V domains shown)
VH: B1 VH with S54G, V56S, G65S
VL: B1 VL with G33N
- Ab-IC50, cell viability (CellTiter-Glo, 96 h), A431 (Trop-2+++) [2]: 0.024 µg/mL and 0.163 nM
- Ab-IC50, cell viability (CellTiter-Glo, 96 h), CAPAN-2 (Trop-2+/++) [2]: 2.02 µg/mL and 13.5 nM
- Ab-IC50, cell viability (CellTiter-Glo, 96 h), Colo205 (Trop-2+) [2]: 0.1 µg/mL and 0.668 nM

B7: h7E6-SVGL-TG1-vcMMAD (AcLys-vcMMAD conjugate) (antibody, V domains shown)
VH: B1 VH
VL: B1 VL with G33L
- Ab-IC50, cell viability (CellTiter-Glo, 96 h), A431 (Trop-2+++) [2]: 0.018 µg/mL and 0.12 nM
- Ab-IC50, cell viability (CellTiter-Glo, 96 h), CAPAN-2 (Trop-2+/++) [2]: 2.44 µg/mL and 16.3 nM
- Ab-IC50, cell viability (CellTiter-Glo, 96 h), Colo205 (Trop-2+) [2]: 0.052 µg/mL and 0.345 nM

B8: h7E6-SVGN-TG1-vcMMAD (AcLys-vcMMAD conjugate) (antibody, V domains shown)
VH: B1 VH
VL: B1 VL with G33N
- Ab-IC50, cell viability (CellTiter-Glo, 96 h), A431 (Trop-2+++) [2]: 0.023 µg/mL and 0.153 nM
- Ab-IC50, cell viability (CellTiter-Glo, 96 h), BxPC3 (Trop-2++) [2]: 0.051 µg/mL and 0.337 nM
- Ab-IC50, cell viability (CellTiter-Glo, 96 h), CAPAN-2 (Trop-2+/++) [2]: 2.01 µg/mL and 13.4 nM
- Ab-IC50, cell viability (CellTiter-Glo, 96 h), Colo205 (Trop-2+) [2]: 0.083 µg/mL and 0.552 nM

B9: 6G11-TG1-vcMMAD (AcLys-vcMMAD conjugate) (antibody, V domains shown)
VH: QVQLQQPGAELVRPGASVKLSCKASGYTFTSYWINWVKQRPGHGLEWIGNIYPSDSYSNYNQKFKDKATLTVDKSSSTAYMQVSSPTSEDSAVYYCTYGSSFDYWGQGTTVTVSS
VL: DILLTQSPAILSVSPGERVSFSCRASQTIGTSIHWYQQRTNGSPRLLIKYASESISGIPSRFSGSGSGTDFTLSINSVESEDIADYYCQQSNSWPFTFGSGTKLEIK
- Ab-IC50, cell viability (CellTiter-Glo, 96 h), A431 (Trop-2+++) [2]: 0.03 µg/mL and 0.197 nM
- Ab-IC50, cell viability (CellTiter-Glo, 96 h), Colo205 (Trop-2+) [2]: 0.379 µg/mL and 2.52 nM

B10: h7E6-SVG-TG1-vcMMAD (Aminocapryl-vcMMAD conjugate) (antibody, V domains shown)
VH: B1 VH
VL: B1 VL
- Ab-IC50, cell viability (CellTiter-Glo, 96 h), BxPC3 (Trop-2++) [2]: 0.034 µg/mL and 0.229 nM

B11: h7E6SVG-TG6-AcLys-vc-PABC-MMAD (antibody, human IgG1, V domains shown)
VH: B1 VH
VL: B1 VL
- Ab-IC50, cell viability (CellTiter-Glo, 96 h), A431 (Trop-2+++) [2]: 0.011 µg/mL and 0.072 nM
- Ab-IC50, cell viability (CellTiter-Glo, 96 h), BxPC3 (Trop-2++) [2]: 0.032 µg/mL and 0.214 nM
- Ab-IC50, cell viability (CellTiter-Glo, 96 h), Colo205 (Trop-2+) [2]: 0.209 µg/mL and 1.39 nM

B12: h7E6SVG-K222R-LCQ3-AcLys-vc-PABC-MMAD (antibody, human IgG1, V domains shown)
VH: B1 VH
VL: B1 VL
- Ab-IC50, cell viability (CellTiter-Glo, 96 h), A431 (Trop-2+++) [2]: 0.01 µg/mL and 0.07 nM
- Ab-IC50, cell viability (CellTiter-Glo, 96 h), BxPC3 (Trop-2++) [2]: 0.014 µg/mL and 0.092 nM
- Ab-IC50, cell viability (CellTiter-Glo, 96 h), Colo205 (Trop-2+) [2]: 2.68 µg/mL and 17.9 nM

B13: h7E6SVG-LCQ04/K222R-vc0101 (antibody, human IgG1, V domains shown)
VH: B1 VH
VL: B1 VL
modifications: AcLys-vc-PABC-0101 on tag LCQ04 (SEQ ID NO: 79 as printed) at the C-terminus of the light chain; K222R in the heavy chain constant region
- Ab IC50, cell viability (CellTiter-Glo, 96 h), BxPC3 (Trop2 ++) [1]: 0.11 nM
- Ab IC50, cell viability (CellTiter-Glo, 96 h), Calu-3 (Trop2 ++) [1]: 1.51 nM
- Ab IC50, cell viability (CellTiter-Glo, 96 h), NCI-H292 (Trop2 ++) [1]: 1.84 nM

B14: h7E6_SVG19 Fab (Fab, V domains shown)
VH: B1 VH with G99S
VL: B1 VL
notes: also called DS (h7E6_SVG19)
- Kd [3]: > 75 nM
- koff [3]: 0.045 s⁻¹
- kon [3]: < 600000 M⁻¹ s⁻¹
- t1/2 [3]: 15.6 s

B15: h7E6_SVG20 Fab (Fab, V domains shown)
VH: B1 VH with G99K
VL: B1 VL
notes: also called DK (h7E6_SVG20)
- Kd [3]: > 75 nM
- koff [3]: 0.013 s⁻¹
- kon [3]: < 170000 M⁻¹ s⁻¹
- t1/2 [3]: 52.8 s

B16: h7E6_SVG22 Fab (Fab, V domains shown)
VH: B1 VH with G99A
VL: B1 VL
notes: also called DA (h7E6_SVG22)
- Kd [3]: > 75 nM
- koff [3]: 0.013 s⁻¹
- kon [3]: < 180000 M⁻¹ s⁻¹
- t1/2 [3]: 51.6 s

B17: h7E6_SVG28 Fab (Fab, V domains shown)
VH: B1 VH with G99L
VL: B1 VL
notes: also called DL (h7E6_SVG28)
- Kd [3]: > 75 nM
- koff [3]: 0.016 s⁻¹
- kon [3]: < 210000 M⁻¹ s⁻¹
- t1/2 [3]: 43.2 s
